Assay results published in PMC7948952, “Structural basis for multifunctional roles of human Ints3 C-terminal domain” (The Journal of Biological Chemistry, 2020).

What was measured:
[1] = biological target: the molecule itself; assay: cross-linking; glutaraldehyde, final concentration 0.075%, SDS-PAGE; negative control with 1% SDS and 20 mM DTT added before the reaction
[2] = biological target: the molecule itself; assay: SEC; Superdex 200 Increase 10/300 Gl, 100 μl of approximately 2 mg/ml, 0.5 ml/min; wild-type and mutant Ints3-555-976
[3] = biological target: T1, GST-tagged Ints3-555-976, wild type (human, UniProt Q68E01-2 555-976); assay: pull-down; in vitro GST pull-down: GST-Ints3 captured on glutathione Sepharose 4B from BL21 lysates, incubated with about 15 μg purified MBP-Ints6-807-887; 20 mM Tris-HCl pH 8.0, 300 mM NaCl, 0.1% Nonidet P-40, 5% glycerol, 2 mM DTT, 2 h at 4 °C; anti-MBP blot; details: both partners purified
T1 construct: numbers count on: UniProtKB Q68E01-2, 1042 amino acids; also called GST-Ints3; GST-tagged Ints3 C-terminal domain; source: E. coli BL21, captured on glutathione Sepharose from lysate; also coexpressed with MBP-Ints6-807-887; not shown: GST, N-terminal, kept

GST-tagged Ints3-555-899 = biological target: T2, GST-tagged Ints3-555-899 (human, UniProt Q68E01-2 555-899); assay: as above; details: both partners purified
T2 construct: numbers count on: UniProtKB Q68E01-2, 1042 amino acids; source: E. coli BL21, captured on glutathione Sepharose from lysate

[4] = biological target: T3, GST-tagged Ints3-555-976 R863A/D869A (human, UniProt Q68E01-2 555-976, R863A | D869A); assay: pull-down; coexpression in E. coli of GST-tagged Ints3 constructs (pGEX-6p-1) and MBP-Ints6-807-887 (pRSFDuet-1), GST or MBP pull-down ('coexpression and reverse pull-down'); details: partners not purified
T3 construct: numbers count on: UniProtKB Q68E01-2, 1042 amino acids; source: E. coli BL21, coexpressed with MBP-Ints6-807-887; also captured on glutathione Sepharose from lysate; not shown: GST, N-terminal, kept

[5] = biological target: Ints3 C-terminal domain (Ints3-555-976) WT (human, UniProt Q68E01-2 555-976); assay: EMSA; roughly 100% bound at 25 uM protein; 20 mM Hepes pH 7.4, 100 mM NaCl, 1 mM MgCl2, 1 mg/ml BSA, 2 mM DTT, 5% glycerol; on ice 30 min; 7.5 nM probe; native 5% PAGE in 1X TBE; details: protein: recombinant; tags: His or GST (GST cleaved); chain copies: 2; label: 5' 32P; single strand

B1: Ints3-555-976 (human Ints3 C-terminal domain), wild type (domain or fragment, UniProt Q68E01-2 555-976, looked up)
chain: PIKETVVEEPVDITPYLDQLDESLRDKVLQLQKGSDTEAQCEVMQEIVDQVLEEDFDSEQLSVLASCLQELFKAHFRGEVLPEEITEESLEESVGKPLYLIFRNLCQMQEDNSSFSLLLDLLSELYQKQPKIGYHLLYYLRASKAAAGKMNLYESFAQATQLGDLHTCLMMDMKACQEDDVRLLCHLTPSIYTEFPDETLRSGELLNMIVAVIDSAQLQELVCHVMMGNLVMFRKDSVLNILIQSLDWETFEQYCAWQLFLAHNIPLETIIPILQHLKYKEHPEALSCLLLQLRREKPSEEMVKMVLSRPCHPDDQFTTSILRHWCMKHDELLAEHIKSLLIKNNSLPRKRQSLRSSSSKLAQLTLEQILEHLDNLRLNLTNTKQNFFSQTPILQALQHVQASCDEAHKMKFSDLFSLAEEY
notes: numbers count on: UniProtKB Q68E01-2, 1042 amino acids; For crystallisation a trace of trypsin (1:1000 w/w) was added; it cuts after K557 and after K914, and both fragments stay in the crystal; SeMet protein was used for phasing; also called HR1-11; Band I; not shown: GST, N-terminal, cleaved
[1]
  stoichiometry N: 2

B2: Ints3-555-976 K851E (domain or fragment, human, UniProt Q68E01-2 555-976, looked up)
chain: PIKETVVEEPVDITPYLDQLDESLRDKVLQLQKGSDTEAQCEVMQEIVDQVLEEDFDSEQLSVLASCLQELFKAHFRGEVLPEEITEESLEESVGKPLYLIFRNLCQMQEDNSSFSLLLDLLSELYQKQPKIGYHLLYYLRASKAAAGKMNLYESFAQATQLGDLHTCLMMDMKACQEDDVRLLCHLTPSIYTEFPDETLRSGELLNMIVAVIDSAQLQELVCHVMMGNLVMFRKDSVLNILIQSLDWETFEQYCAWQLFLAHNIPLETIIPILQHLKYKEHPEALSCLLLQLRREEPSEEMVKMVLSRPCHPDDQFTTSILRHWCMKHDELLAEHIKSLLIKNNSLPRKRQSLRSSSSKLAQLTLEQILEHLDNLRLNLTNTKQNFFSQTPILQALQHVQASCDEAHKMKFSDLFSLAEEY
notes: numbers count on: UniProtKB Q68E01-2, 1042 amino acids; also called K851 E charge mutant; source: purified to homogeneity (gel filtration)
[2]
  stoichiometry N: 2

B3: Ints3-555-976 R788E/K789E (domain or fragment, human, UniProt Q68E01-2 555-976, looked up)
chain: PIKETVVEEPVDITPYLDQLDESLRDKVLQLQKGSDTEAQCEVMQEIVDQVLEEDFDSEQLSVLASCLQELFKAHFRGEVLPEEITEESLEESVGKPLYLIFRNLCQMQEDNSSFSLLLDLLSELYQKQPKIGYHLLYYLRASKAAAGKMNLYESFAQATQLGDLHTCLMMDMKACQEDDVRLLCHLTPSIYTEFPDETLRSGELLNMIVAVIDSAQLQELVCHVMMGNLVMFEEDSVLNILIQSLDWETFEQYCAWQLFLAHNIPLETIIPILQHLKYKEHPEALSCLLLQLRREKPSEEMVKMVLSRPCHPDDQFTTSILRHWCMKHDELLAEHIKSLLIKNNSLPRKRQSLRSSSSKLAQLTLEQILEHLDNLRLNLTNTKQNFFSQTPILQALQHVQASCDEAHKMKFSDLFSLAEEY
notes: numbers count on: UniProtKB Q68E01-2, 1042 amino acids; source: purified to homogeneity (gel filtration)
[2]
  stoichiometry N: 2

B4: MBP-Ints6-807-887 (domain or fragment, UniProt Q9UL03 807-887, looked up)
chain: EVNTELKAQIMKEIRKPGRKYERIFTLLKHVQGSLQTRLIFLQNVIKEASRFKKRMLIEQLENFLDEIHRRANQINHINSN
notes: Integrator complex subunit 6 (Ints6, DDX26a), residues 807-887; cDNA from DNAsu; Made in a modified pMal-c2X vector: an AAAEF linker and no protease site stand between MBP and Ints6-807-887; the MBP-Ints6-807-887 region was then cloned into pRSFDuet-1; also called MBP-tagged Ints6-807-887; source: E. coli BL21-CodonPlus (DE3)-RIPL, purified (amylose resin, HiTrap Q); also coexpressed with …
[3]
  binding result: binds
GST-tagged Ints3-555-899
  binding result: binds
[4]
  binding result: binds

## UUUUUUUUUUUUUUUUUUUUUUUUUUUUUU (ssRNA) [rU30]
[5]
  binding result: binds
